# Test results from paper PMC9482650, “Quantitative fragmentomics allow affinity mapping of interactomes” (Nature Communications, 2022).
# T1: MPDZ_5, O75970
# T1 sequence (O75970 695-796, limits assumed, looked up): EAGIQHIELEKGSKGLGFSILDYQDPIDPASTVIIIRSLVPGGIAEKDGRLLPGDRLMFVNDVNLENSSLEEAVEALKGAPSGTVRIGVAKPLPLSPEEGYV
# T2: TX1BP3, O14907
# T2 sequence (O14907 10-122, limits assumed, looked up): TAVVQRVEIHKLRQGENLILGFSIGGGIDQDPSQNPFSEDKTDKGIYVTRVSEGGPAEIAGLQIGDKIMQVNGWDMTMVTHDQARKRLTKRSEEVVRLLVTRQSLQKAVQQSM
# T3: DLG3_1, Q92796
# T3 sequence (Q92796 125-227, limits assumed, looked up): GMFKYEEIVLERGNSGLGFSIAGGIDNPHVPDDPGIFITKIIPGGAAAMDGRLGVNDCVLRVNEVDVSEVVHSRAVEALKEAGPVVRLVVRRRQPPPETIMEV
# T4: NHERF3_4, Q5T2W1
# T4 sequence (Q5T2W1 373-468, limits assumed, looked up): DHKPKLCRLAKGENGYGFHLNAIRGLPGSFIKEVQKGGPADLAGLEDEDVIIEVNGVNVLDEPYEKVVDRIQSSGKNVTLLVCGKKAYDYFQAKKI
# T5: LRRC7, Q96NW7
# T5 sequence (Q96NW7 1440-1537, limits assumed, looked up): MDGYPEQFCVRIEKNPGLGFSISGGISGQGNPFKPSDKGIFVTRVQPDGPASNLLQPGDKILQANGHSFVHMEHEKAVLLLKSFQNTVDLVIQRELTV
# T6: ARHGAP21, Q5T5U3
# T6 sequence (Q5T5U3 45-169, limits assumed, looked up): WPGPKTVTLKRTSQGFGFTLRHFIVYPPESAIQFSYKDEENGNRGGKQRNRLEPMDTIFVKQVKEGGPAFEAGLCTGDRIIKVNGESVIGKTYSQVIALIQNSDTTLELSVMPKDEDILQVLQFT
# T7: NHERF3_1, Q5T2W1
# T7 sequence (Q5T2W1 4-100, limits assumed, looked up): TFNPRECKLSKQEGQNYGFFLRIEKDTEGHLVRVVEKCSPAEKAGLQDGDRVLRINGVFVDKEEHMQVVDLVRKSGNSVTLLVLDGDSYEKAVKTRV
# T8: MPDZ_12, O75970
# T8 sequence (O75970 1857-1958, limits assumed, looked up): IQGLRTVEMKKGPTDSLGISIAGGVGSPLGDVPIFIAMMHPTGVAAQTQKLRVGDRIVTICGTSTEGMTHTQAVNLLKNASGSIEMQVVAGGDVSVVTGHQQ
# T9: PDZRN3_1, Q9UPQ7
# T9 sequence (Q9UPQ7 244-349, limits assumed, looked up): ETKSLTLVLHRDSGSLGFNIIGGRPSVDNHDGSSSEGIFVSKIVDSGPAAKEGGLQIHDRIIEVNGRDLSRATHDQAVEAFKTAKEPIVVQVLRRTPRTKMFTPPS
# T10: APBA2_2, Q99767
# T10 sequence (Q99767 654-744, limits assumed, looked up): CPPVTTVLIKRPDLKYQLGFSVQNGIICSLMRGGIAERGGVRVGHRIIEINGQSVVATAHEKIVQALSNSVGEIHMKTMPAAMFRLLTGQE
# T11: MPDZ_10, O75970
# T11 sequence (O75970 1624-1722, limits assumed, looked up): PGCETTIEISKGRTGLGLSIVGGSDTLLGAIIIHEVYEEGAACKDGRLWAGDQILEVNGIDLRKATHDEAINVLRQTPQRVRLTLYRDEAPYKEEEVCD
# T12: LIN7A, O14910
# T12 sequence (O14910 103-200, limits assumed, looked up): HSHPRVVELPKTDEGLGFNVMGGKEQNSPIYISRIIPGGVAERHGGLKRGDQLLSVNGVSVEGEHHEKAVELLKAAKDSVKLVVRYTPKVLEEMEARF
# T13: DFNB31_2, Q9P202
# T13 sequence (Q9P202 274-371, limits assumed, looked up): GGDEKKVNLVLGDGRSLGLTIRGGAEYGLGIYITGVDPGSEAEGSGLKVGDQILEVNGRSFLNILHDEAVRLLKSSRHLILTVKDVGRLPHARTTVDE
# B1: HCN2, Q9UL51 (peptide)
# chain: SARSRLSSNL
# B2: TRAF2, Q12933 (peptide)
# chain: IKAIVDLTGL
# Molecular target: TJP1_2, Q07157
# Sequence (Q07157 181-274): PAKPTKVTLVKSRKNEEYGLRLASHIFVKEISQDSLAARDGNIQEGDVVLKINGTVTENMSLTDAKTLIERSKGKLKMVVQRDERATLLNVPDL
# Test: holdup assay
# Set-up: key: below the threshold = too weak to quantify, mostly under pKd 3.1 to 4
# Settings: plain residues with an end cap or a label only (N-terminal biotin on a linker: ado-ado)
row,Binder,pKd
1,B1,below the threshold
2,B2,below the threshold

# Molecular target: IL16_3, Q14005
# Sequence (Q14005 1107-1207): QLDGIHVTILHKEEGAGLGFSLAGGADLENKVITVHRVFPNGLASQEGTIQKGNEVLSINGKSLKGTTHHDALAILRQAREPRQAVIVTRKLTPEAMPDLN
# Test: holdup assay
# Set-up: key: below the threshold = too weak to quantify, mostly under pKd 3.1 to 4
# Settings: plain residues with an end cap or a label only (N-terminal biotin on a linker: ado-ado)
row,Binder,pKd
1,B1,below the threshold
2,B2,below the threshold

# Molecular target: T1, MPDZ_5, O75970
# Test: holdup assay
# Set-up: key: below the threshold = too weak to quantify, mostly under pKd 3.1 to 4
# Settings: plain residues with an end cap or a label only (N-terminal biotin on a linker: ado-ado)
row,Binder,pKd
1,B1,below the threshold
2,B2,below the threshold

# Molecular target: MAGI2_5, Q86UL8
# Sequence (Q86UL8 915-1017): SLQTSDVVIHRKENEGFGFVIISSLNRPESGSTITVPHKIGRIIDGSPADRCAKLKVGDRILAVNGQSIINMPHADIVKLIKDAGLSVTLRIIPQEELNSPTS
# Test: holdup assay
# Set-up: key: below the threshold = too weak to quantify, mostly under pKd 3.1 to 4
# Settings: plain residues with an end cap or a label only (N-terminal biotin on a linker: ado-ado)
row,Binder,pKd
1,B1,below the threshold
2,B2,below the threshold

# Molecular target: MAST1, Q9Y2H9
# Sequence (Q9Y2H9 962-1065): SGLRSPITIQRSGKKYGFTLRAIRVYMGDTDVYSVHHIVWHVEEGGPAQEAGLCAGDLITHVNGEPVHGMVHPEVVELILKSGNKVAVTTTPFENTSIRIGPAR
# Test: holdup assay
# Set-up: key: below the threshold = too weak to quantify, mostly under pKd 3.1 to 4
# Settings: plain residues with an end cap or a label only (N-terminal biotin on a linker: ado-ado)
row,Binder,pKd
1,B1,4.65
2,B2,3.63

# Molecular target: T2, TX1BP3, O14907
# Test: holdup assay
# Set-up: key: below the threshold = too weak to quantify, mostly under pKd 3.1 to 4
# Settings: plain residues with an end cap or a label only (N-terminal biotin on a linker: ado-ado)
row,Binder,pKd
1,B1,4.23
2,B2,below the threshold

# Molecular target: PICK1, Q9NRD5
# Sequence (Q9NRD5 17-115): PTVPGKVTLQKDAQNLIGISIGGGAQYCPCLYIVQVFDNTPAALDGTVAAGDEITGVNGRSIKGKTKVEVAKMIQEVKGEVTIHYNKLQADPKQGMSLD
# Test: holdup assay
# Set-up: key: below the threshold = too weak to quantify, mostly under pKd 3.1 to 4
# Settings: plain residues with an end cap or a label only (N-terminal biotin on a linker: ado-ado)
row,Binder,pKd
1,B1,below the threshold
2,B2,below the threshold

# Molecular target: DLG1_2, Q12959
# Sequence (Q12959 314-412): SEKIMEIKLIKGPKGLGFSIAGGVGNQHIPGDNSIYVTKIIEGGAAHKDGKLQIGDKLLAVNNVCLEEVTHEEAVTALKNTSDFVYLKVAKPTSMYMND
# Test: holdup assay
# Set-up: key: below the threshold = too weak to quantify, mostly under pKd 3.1 to 4
# Settings: plain residues with an end cap or a label only (N-terminal biotin on a linker: ado-ado)
row,Binder,pKd
1,B1,below the threshold
2,B2,below the threshold

# Molecular target: DLG2_2, Q15700
# Test: holdup assay
# Set-up: key: below the threshold = too weak to quantify, mostly under pKd 3.1 to 4
# Settings: plain residues with an end cap or a label only (N-terminal biotin on a linker: ado-ado)
row,Binder,pKd
1,B1,below the threshold
2,B2,below the threshold

# Molecular target: T3, DLG3_1, Q92796
# Test: holdup assay
# Set-up: key: below the threshold = too weak to quantify, mostly under pKd 3.1 to 4
# Settings: plain residues with an end cap or a label only (N-terminal biotin on a linker: ado-ado)
row,Binder,pKd
1,B1,below the threshold
2,B2,below the threshold

# Molecular target: T4, NHERF3_4, Q5T2W1
# Test: holdup assay
# Set-up: key: below the threshold = too weak to quantify, mostly under pKd 3.1 to 4
# Settings: plain residues with an end cap or a label only (N-terminal biotin on a linker: ado-ado)
row,Binder,pKd
1,B1,below the threshold
2,B2,below the threshold

# Molecular target: T5, LRRC7, Q96NW7
# Test: holdup assay
# Set-up: key: below the threshold = too weak to quantify, mostly under pKd 3.1 to 4
# Settings: plain residues with an end cap or a label only (N-terminal biotin on a linker: ado-ado)
row,Binder,pKd
1,B1,below the threshold
2,B2,below the threshold

# Molecular target: PTPN3, P26045
# Sequence (P26045 505-587): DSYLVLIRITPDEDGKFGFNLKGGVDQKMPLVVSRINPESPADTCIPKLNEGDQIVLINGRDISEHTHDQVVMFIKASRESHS
# Test: holdup assay
# Set-up: key: below the threshold = too weak to quantify, mostly under pKd 3.1 to 4
# Settings: plain residues with an end cap or a label only (N-terminal biotin on a linker: ado-ado)
row,Binder,pKd
1,B1,4.16
2,B2,3.91

# Molecular target: T6, ARHGAP21, Q5T5U3
# Test: holdup assay
# Set-up: key: below the threshold = too weak to quantify, mostly under pKd 3.1 to 4
# Settings: plain residues with an end cap or a label only (N-terminal biotin on a linker: ado-ado)
row,Binder,pKd
1,B1,4.37
2,B2,3.74

# Molecular target: T7, NHERF3_1, Q5T2W1
# Test: holdup assay
# Set-up: key: below the threshold = too weak to quantify, mostly under pKd 3.1 to 4
# Settings: plain residues with an end cap or a label only (N-terminal biotin on a linker: ado-ado)
row,Binder,pKd
1,B1,4.72
2,B2,4.56

# Molecular target: NOS1, P29475
# Sequence (P29475 9-101): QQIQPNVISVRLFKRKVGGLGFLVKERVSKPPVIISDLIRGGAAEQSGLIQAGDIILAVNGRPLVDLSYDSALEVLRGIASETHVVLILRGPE
# Test: holdup assay
# Set-up: key: below the threshold = too weak to quantify, mostly under pKd 3.1 to 4
# Settings: plain residues with an end cap or a label only (N-terminal biotin on a linker: ado-ado)
row,Binder,pKd
1,B1,below the threshold
2,B2,below the threshold

# Molecular target: T8, MPDZ_12, O75970
# Test: holdup assay
# Set-up: key: below the threshold = too weak to quantify, mostly under pKd 3.1 to 4
# Settings: plain residues with an end cap or a label only (N-terminal biotin on a linker: ado-ado)
row,Binder,pKd
1,B1,below the threshold
2,B2,below the threshold

# Molecular target: HTRA1, Q92743
# Sequence (Q92743 360-477): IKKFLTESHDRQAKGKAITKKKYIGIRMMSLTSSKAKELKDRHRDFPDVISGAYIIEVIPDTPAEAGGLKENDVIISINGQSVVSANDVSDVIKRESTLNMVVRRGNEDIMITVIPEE
# Test: holdup assay
# Set-up: key: below the threshold = too weak to quantify, mostly under pKd 3.1 to 4
# Settings: plain residues with an end cap or a label only (N-terminal biotin on a linker: ado-ado)
row,Binder,pKd
1,B1,below the threshold
2,B2,below the threshold

# Molecular target: T9, PDZRN3_1, Q9UPQ7
# Test: holdup assay
# Set-up: key: below the threshold = too weak to quantify, mostly under pKd 3.1 to 4
# Settings: plain residues with an end cap or a label only (N-terminal biotin on a linker: ado-ado)
row,Binder,pKd
1,B1,3.63
2,B2,below the threshold

# Molecular target: T10, APBA2_2, Q99767
# Test: holdup assay
# Set-up: key: below the threshold = too weak to quantify, mostly under pKd 3.1 to 4
# Settings: plain residues with an end cap or a label only (N-terminal biotin on a linker: ado-ado)
row,Binder,pKd
1,B1,below the threshold
2,B2,below the threshold

# Molecular target: DLG2_3, Q15700
# Test: holdup assay
# Set-up: key: below the threshold = too weak to quantify, mostly under pKd 3.1 to 4
# Settings: plain residues with an end cap or a label only (N-terminal biotin on a linker: ado-ado)
row,Binder,pKd
1,B1,below the threshold
2,B2,below the threshold

# Molecular target: T11, MPDZ_10, O75970
# Test: holdup assay
# Set-up: key: below the threshold = too weak to quantify, mostly under pKd 3.1 to 4
# Settings: plain residues with an end cap or a label only (N-terminal biotin on a linker: ado-ado)
row,Binder,pKd
1,B1,below the threshold
2,B2,below the threshold

# Molecular target: T12, LIN7A, O14910
# Test: holdup assay
# Set-up: key: below the threshold = too weak to quantify, mostly under pKd 3.1 to 4
# Settings: plain residues with an end cap or a label only (N-terminal biotin on a linker: ado-ado)
row,Binder,pKd
1,B1,below the threshold
2,B2,below the threshold

# Molecular target: T13, DFNB31_2, Q9P202
# Test: holdup assay
# Set-up: key: below the threshold = too weak to quantify, mostly under pKd 3.1 to 4
# Settings: plain residues with an end cap or a label only (N-terminal biotin on a linker: ado-ado)
row,Binder,pKd
1,B1,below the threshold
2,B2,below the threshold
